Data from US20210069342A1 (LEGOCHEM BIOSCIENCES, published 2021).
Substitutions are numbered along the chain they refer to.

B1: anti-ROR1 IgG antibody AB4 (antibody, V domains shown)
VH: EVQLLESGGGLVQPGGSLRLSCAASGFTFSSYDMSWVRQAPGKGLEWVSWISPDSGSIYYADSVKGRFTISRDNSKNTLYLQMNSLRAEDTAVYYCARPTGRFDYWGQGTLVTVSS
VL: QSVLTQPPSASGTPGQRVTISCSGSSSNIGNNNVNWYQQLPGTAPKLLIYYDNKRPSGVPDRFSGSKSGTSASLAISGLRSEDEADYYCGTWDASLSGYVFGGGTKLTVLG
notes: Full IgG form (human IgG1 constant region, lambda light chain), expressed in CHO-S cells
B2: anti-ROR1 IgG antibody DG6 (antibody, V domains shown)
VH: EVQLLESGGGLVQPGGSLRLSCAASGFTFSDYDMSWVRQAPGKGLEWVSVISPDGGSIYYADSVKGRFTISRDNSKNTLYLQMNSLRAEDTAVYYCARDVVECNMNPCSYDNAMDVWGQGTLVTVSS
VL: B1 VL with N31S, N33Y, N35S, Y51D, N53S, K54H, T91A, A94D
notes: as for B1
B3: anti-ROR1 IgG antibody BA6 (antibody, V domains shown)
VH: EVQLLESGGGLVQPGGSLRLSCAASGFTFSNYDMSWVRQAPGKGLEWVSAIYHSGSSKYYADSVKGRFTISRDNSKNTLYLQMNSLRAEDTAVYYCARGGNGAWDTGFDYWGQGTLVTVSS
VL: B1 VL with N31S, N33D, N35S, K54N, T91A, A94D
notes: as for B1
B4: anti-ROR1 IgG antibody A2F2 (antibody, V domains shown)
VH: EVQLLESGGGLVQPGGSLRLSCAASGFTFSDYYMSWVRQAPGKGLEWVSSISPDGSNTYYADSVKGRFTISRDNSKNTLYLQMNSLRAEDTAVYYCAKNLRAFDYWGQGTLVTVSS
VL: B1 VL with S9P, N31S, N33T, N35Y, Y51A, D52N, N53S, K54Q, T91S, A94Y
notes: as for B1
B5: anti-ROR1 IgG antibody D2B12 (antibody, V domains shown)
VH: EVQLLESGGGLVQPGGSLRLSCAASGFTFSNYDMSWVRQAPGKGLEWVSSISPSSGSSIYYADSVKGRFTISRDNSKNTLYLQMNSLRAEDTAVYYCAKAPGWCQAPSCYYDNAMDVWGQGTLVTVSS
VL: B1 VL with N33D, N35S, Y51D, N53S, K54Q, T91A, A94D
notes: as for B1
B6: anti-ROR1 IgG antibody CC9 (antibody, V domains shown)
VH: EVQLLESGGGLVQPGGSLRLSCAASGFTFSSYDMSWVRQAPGKGLEWVSGISHGSGNKYYADSVKGRFTISRDNSKNTLYLQMNSLRAEDTAVYYCAKRLSLRRRPSYYSDNAMDVWGQGTLVTVSS
VL: B1 VL with S23T, N33A, N53S, K54N, T91A, A94D
notes: as for B1
B7: anti-ROR1 IgG antibody A2F3 (antibody, V domains shown)
VH: B1 VH with D54G, S55G, I58K, P99V, T100N
VL: B1 VL with N35S, Y51A, N53S, K54H, G90A, A94Y
notes: as for B1
B8: anti-ROR1 IgG antibody A2F2 M1 (antibody, V domains shown)
VH: B4 VH with G55A
VL: B1 VL with S9P, N31S, N33T, N35Y, Y51A, D52N, N53S, K54Q, T91S, A94Y
notes: as for B1
B9: anti-ROR1 IgG antibody BA6 M1 (antibody, V domains shown)
VH: B3 VH with G102A
VL: B1 VL with N31S, N33D, N35S, K54N, T91A, A94D
notes: as for B1

biological target: T1, recombinant mouse ROR1 protein (Acrobiosystems, RO1-M5221) (mouse, UniProt Q9Z139 30-403); assay: ELISA, wells coated with recombinant mouse ROR1 protein, IgG titrated, HRP anti-Fab detection, OD (450-650nm)
T1 construct: Bought protein; also called mouse ROR1 antigen
T1 sequence (Q9Z139 30-403 limits assumed): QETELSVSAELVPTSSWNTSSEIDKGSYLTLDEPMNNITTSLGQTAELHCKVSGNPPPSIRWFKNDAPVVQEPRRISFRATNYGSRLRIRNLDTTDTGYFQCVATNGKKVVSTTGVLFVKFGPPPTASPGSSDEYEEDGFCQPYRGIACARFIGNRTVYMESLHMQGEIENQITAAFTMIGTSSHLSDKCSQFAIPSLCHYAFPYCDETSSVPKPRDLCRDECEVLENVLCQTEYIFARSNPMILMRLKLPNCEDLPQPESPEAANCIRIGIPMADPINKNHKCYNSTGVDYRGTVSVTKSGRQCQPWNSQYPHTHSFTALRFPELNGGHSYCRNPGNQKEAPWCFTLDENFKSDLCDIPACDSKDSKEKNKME
Procedure: (§1) Anti-ROR1 antibody antigen binding affinity was assessed using an ELISA-based solution binding assay. Specifically, a 96-well microtiter plate (Nunc-Immuno Plates), NUNC) was coated for 16 hours at 4° C. with the ROR1 protein described below at a concentration of 1 in PBS solution, and non-specific binding sites were blocked for 2 hours with 3% BSA (bovine serum albumin). Here, the ROR1 protein used was, in the case of human ROR1, the ROR1-Fc or recombinant human ROR1-His (Sino Biological, 13968-H08H) of Embodiment 1. The ROR1-His used in ELISA, as stated in the above sentence, was a protein from the Sino Biological company (13968-H08H), and the ROR1-His of Embodiment 1 or recombinant mouse ROR1 protein was used (Acrobiosystems, RO1-M5221-100 )
(§2) Subsequently, the anti-ROR1 antibodies prepared in Embodiment 3 were added at the concentrations stated in FIG. 2 to a 96-well microtiter plate, and binding capacity was analyzed using ELISA as follows. Specifically, after incubating for 2 hours, the plate was washed 5 times with PBS containing 0.05% Tween 20, then HRP-conjugated Fab multiclonal antibody reagent (Perce, 31414) was diluted to 1:10,000 and placed in the washed microtiter plate. After reacting for 1 hour at 37° C., the ROR1 antibodies bonded to the plate were detected. After the reaction, color development was performed using TMB (Tetramethylbenzidine, Sigma, T0440). The enzymatic reaction was stopped using 0.5 mol/L sulfuric acid, and absorbance at 450 nm and 650 nm was measured (450 nm-650 nm) using a micro plate reader (Molecular Device)

| Binder | EC50 (read off the curve) | binding result |
| --- | --- | --- |
| B1 | ~0.2 nM | – |
| B2 | ~0.1 nM | – |
| B3 | – | binds |
| B4 | ~0.3 nM | – |
| B5 | ~0.3 nM | – |
| B6 | – | binds |
| B7 | ~0.7 nM | – |

biological target: T2, human ROR2 over-expressed on CHO cells (CHO-human ROR2) (human, UniProt Q01974 34-943); assay: flow cytometry on CHO-S cells transiently over-expressing human ROR2, FITC anti-human Fc detection, MFI ratio to 2nd Ab alone
T2 construct: whole, on cells; Negative control; also called family protein human ROR2
T2 sequence (Q01974 34-943): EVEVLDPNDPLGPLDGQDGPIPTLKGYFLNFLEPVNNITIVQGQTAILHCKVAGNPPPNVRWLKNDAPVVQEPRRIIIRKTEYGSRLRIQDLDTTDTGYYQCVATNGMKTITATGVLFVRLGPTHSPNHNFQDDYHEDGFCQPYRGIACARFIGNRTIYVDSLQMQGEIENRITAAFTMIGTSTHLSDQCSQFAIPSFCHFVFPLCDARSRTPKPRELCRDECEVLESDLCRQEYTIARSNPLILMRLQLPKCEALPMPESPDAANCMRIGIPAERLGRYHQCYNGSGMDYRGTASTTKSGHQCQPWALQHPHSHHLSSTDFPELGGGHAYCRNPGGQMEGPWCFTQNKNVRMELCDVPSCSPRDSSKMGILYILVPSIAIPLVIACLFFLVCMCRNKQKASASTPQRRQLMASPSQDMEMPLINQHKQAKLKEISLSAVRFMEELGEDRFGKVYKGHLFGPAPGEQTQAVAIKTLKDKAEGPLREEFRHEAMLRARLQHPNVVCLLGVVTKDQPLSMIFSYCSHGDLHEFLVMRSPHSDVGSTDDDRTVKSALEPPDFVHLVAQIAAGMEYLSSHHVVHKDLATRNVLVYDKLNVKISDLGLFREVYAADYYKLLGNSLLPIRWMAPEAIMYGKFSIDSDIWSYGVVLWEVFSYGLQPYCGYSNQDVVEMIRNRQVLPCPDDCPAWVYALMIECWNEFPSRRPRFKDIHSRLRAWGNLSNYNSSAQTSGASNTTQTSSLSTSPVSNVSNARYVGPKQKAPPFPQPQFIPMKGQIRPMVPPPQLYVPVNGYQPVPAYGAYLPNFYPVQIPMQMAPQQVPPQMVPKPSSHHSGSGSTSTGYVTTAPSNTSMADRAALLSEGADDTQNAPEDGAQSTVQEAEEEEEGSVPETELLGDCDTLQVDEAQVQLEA
Source text: (§3) For this experiment, using cell lines (FIG. 5 and FIG. 7, respectively) transiently (CHO-human ROR1, CHO-human ROR2, CHO-mouse ROR1) or stably (MC38-human ROR1) transfected with ROR1 gene to achieve artificial over-expression of ROR1 protein, an ROR1-expressing cell line (JeKo-1, Mino) (FIG. 6), a non ROR1-expressing cell line (MCF7) (FIG. 6) and a FACSCalibur (BD Biosciences) device was used to measure the degree to which anti-ROR1 antibody and ROR1 were bound, as follows. […] JeKo-1, Mino, CHO-human ROR1, CHO-mouse ROR1 and MC38-human ROR1 are all cell lines which express human ROR1 or mouse ROR1.
(§4) Specifically, after dissociating each cell line and washing in PBS, the number of cells was counted and adjusted to 2×10⁵ cells/200 PBS. Then the respective ROR1 monoclonal antibodies prepared in Embodiment 3 were diluted 5 times from 10 /mL or 10 /mL, then reacted for 1 hour at 4° C. After the reaction, the cells were washed in PBS, then FITC-marked constant region (Fc) specific antibody (Goat anti-human IgG FITC conjugate, Fc specific, Sigma, F9512, concentration 20 mg/ml) was suspended in 2 /1×10⁵ cells/200 PBS and reacted for 1 hour at 4° C. As for identification of the degree of expression of the transiently over-expressed human ROR1, human ROR2 and mouse ROR1, a commercially available FACS analysis antibody (anti-ROR1: R&D Systems, FAB 2000G, anti-ROR2: R&D, FAB20641P) was used. After reacting the cells were washed in PBS and analyzed using a FACSCalibur device. The negative control (2nd Ab) was only treated with FITC-marked constant region (Fc) specific antibody. The shifted readings for the respective experimental groups treated with ROR1 monoclonal antibody were compared against the shifted reading for the control group (MFI Ratio: MFI of anti-ROR1/MFI of 2nd Ab).

| Binder | binding result |
| --- | --- |
| B1 | no binding |
| B2 | no binding |
| B3 | no binding |
| B4 | no binding |
| B5 | no binding |
| B7 | no binding |

biological target: T3, human ROR1 expressed on the cell surface (human, UniProt Q01973 30-937); assay: flow cytometry on MC38-human ROR1 cells, IgG titrated, FITC anti-human Fc detection, MFI ratio to 2nd Ab alone; log axis whose first tick is printed 0
T3 construct: whole, on cells; also called cell surface-expressed ROR1 antigen; ROR1 on JeKo-1, Mino, CHO-human ROR1, MC38-human ROR1 and other cancer cell lines
T3 sequence (Q01973 30-937): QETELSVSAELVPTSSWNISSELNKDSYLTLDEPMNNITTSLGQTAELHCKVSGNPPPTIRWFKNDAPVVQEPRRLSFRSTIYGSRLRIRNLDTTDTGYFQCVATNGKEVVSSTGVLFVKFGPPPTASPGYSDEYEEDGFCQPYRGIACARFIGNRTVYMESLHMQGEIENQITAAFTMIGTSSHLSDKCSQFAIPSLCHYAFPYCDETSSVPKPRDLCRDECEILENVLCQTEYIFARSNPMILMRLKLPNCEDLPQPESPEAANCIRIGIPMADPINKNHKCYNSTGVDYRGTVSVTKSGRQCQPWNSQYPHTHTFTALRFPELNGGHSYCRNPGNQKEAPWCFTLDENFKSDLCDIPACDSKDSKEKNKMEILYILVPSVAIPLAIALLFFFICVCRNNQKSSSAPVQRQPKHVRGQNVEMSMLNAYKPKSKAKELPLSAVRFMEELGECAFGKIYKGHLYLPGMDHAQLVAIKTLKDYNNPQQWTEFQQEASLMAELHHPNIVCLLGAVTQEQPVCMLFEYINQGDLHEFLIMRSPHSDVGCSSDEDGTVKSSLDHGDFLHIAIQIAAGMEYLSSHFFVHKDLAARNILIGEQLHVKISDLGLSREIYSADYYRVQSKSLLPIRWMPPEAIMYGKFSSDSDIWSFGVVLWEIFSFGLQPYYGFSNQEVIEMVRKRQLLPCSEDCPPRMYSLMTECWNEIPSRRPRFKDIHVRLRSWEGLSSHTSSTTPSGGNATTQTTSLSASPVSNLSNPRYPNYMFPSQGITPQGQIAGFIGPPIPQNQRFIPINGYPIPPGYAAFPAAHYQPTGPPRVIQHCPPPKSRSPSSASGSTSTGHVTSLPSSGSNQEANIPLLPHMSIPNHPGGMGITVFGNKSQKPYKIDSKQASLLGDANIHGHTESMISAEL
Source text: as §3, §4

| Binder | EC50 (read off the curve) |
| --- | --- |
| B1 | ~0.1 µg/mL |
| B3 | ~0.1 µg/mL |
| B4 | ~0.1 µg/mL |
| B5 | ~0.2 µg/mL |
| B7 | ~0.2 µg/mL |

biological target: T2, human ROR2 over-expressed on CHO cells …; assay: flow cytometry, CHO-human ROR2 cells
Source text: as §3
(§5) Specifically, after dissociating each cell line and washing in PBS, the number of cells was counted and adjusted to 2×10⁵ cells/200 PBS. Then the respective ROR1 monoclonal antibodies prepared in Embodiment 3 were diluted 5 times from 10 /mL or 10 /mL, then reacted for 1 hour at 4° C. […] After reacting the cells were washed in PBS and analyzed using a FACSCalibur device. […] The shifted readings for the respective experimental groups treated with ROR1 monoclonal antibody were compared against the shifted reading for the control group (MFI Ratio: MFI of anti-ROR1/MFI of 2nd Ab).

| Binder | binding result |
| --- | --- |
| B6 | no binding |

biological target: T1, recombinant mouse ROR1 protein …; assay: ELISA, IgG on coated mouse ROR1
Procedure: as §1
Subsequently, the anti-ROR1 antibodies prepared in Embodiment 3 were added at the concentrations stated in FIG. 2 to a 96-well microtiter plate, and binding capacity was analyzed using ELISA as follows. […] After reacting for 1 hour at 37° C., the ROR1 antibodies bonded to the plate were detected. […] The enzymatic reaction was stopped using 0.5 mol/L sulfuric acid, and absorbance at 450 nm and 650 nm was measured (450 nm-650 nm) using a micro plate reader (Molecular Device)

| Binder | binding result |
| --- | --- |
| B8 | binds |
| B9 | binds |

biological target: T4, mouse ROR1 over-expressed on CHO cells (CHO-mouse ROR1) (mouse, UniProt Q9Z139 30-937); assay: flow cytometry on CHO-S cells transiently over-expressing mouse ROR1, FITC anti-human Fc detection, MFI ratio to 2nd Ab alone
T4 construct: whole, on cells; also called cell surface-expressed mouse ROR1
T4 sequence (Q9Z139 30-937): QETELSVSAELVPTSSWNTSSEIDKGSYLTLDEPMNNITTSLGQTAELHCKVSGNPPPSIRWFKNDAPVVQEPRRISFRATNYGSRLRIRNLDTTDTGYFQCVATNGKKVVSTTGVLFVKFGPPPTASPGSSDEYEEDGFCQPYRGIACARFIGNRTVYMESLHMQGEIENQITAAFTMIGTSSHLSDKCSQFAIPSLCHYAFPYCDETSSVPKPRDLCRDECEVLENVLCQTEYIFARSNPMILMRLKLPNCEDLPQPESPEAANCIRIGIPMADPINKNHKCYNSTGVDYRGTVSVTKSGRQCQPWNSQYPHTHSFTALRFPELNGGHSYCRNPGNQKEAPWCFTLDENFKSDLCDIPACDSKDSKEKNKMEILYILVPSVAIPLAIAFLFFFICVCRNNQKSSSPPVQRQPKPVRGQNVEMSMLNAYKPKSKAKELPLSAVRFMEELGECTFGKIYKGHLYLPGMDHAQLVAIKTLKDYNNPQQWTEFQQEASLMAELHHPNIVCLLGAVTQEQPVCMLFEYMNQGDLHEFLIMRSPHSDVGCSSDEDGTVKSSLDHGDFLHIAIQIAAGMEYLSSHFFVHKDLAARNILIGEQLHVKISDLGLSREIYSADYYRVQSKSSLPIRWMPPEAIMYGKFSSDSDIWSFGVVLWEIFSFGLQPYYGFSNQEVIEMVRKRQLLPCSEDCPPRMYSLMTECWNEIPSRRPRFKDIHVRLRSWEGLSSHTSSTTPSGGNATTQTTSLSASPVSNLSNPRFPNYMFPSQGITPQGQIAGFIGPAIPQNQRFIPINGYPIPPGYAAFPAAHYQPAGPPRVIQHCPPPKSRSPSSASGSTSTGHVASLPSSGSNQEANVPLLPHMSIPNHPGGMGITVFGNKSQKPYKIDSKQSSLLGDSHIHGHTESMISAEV
Source text: as §3, §5

| Binder | binding result |
| --- | --- |
| B3 | binds |

biological target: T4, mouse ROR1 over-expressed on CHO cells …; assay: flow cytometry, CHO-mouse ROR1 cells
Source text: as §3, §4

| Binder | binding result |
| --- | --- |
| B6 | binds |
| B8 | binds |
| B9 | binds |

biological target: T5, recombinant human ROR1-His (Sino Biological, 13968-H08H) (human, UniProt Q01973 30-406); assay: BLI (Octet), ROR1-His on Anti-Penta-His or AR2G biosensor, IgG 30 to 0.021 nM, 1:1 fit
T5 construct: extracellular domain; Bought protein; also called ROR1-HIS protein; not shown: His tag
T5 sequence (Q01973 30-406): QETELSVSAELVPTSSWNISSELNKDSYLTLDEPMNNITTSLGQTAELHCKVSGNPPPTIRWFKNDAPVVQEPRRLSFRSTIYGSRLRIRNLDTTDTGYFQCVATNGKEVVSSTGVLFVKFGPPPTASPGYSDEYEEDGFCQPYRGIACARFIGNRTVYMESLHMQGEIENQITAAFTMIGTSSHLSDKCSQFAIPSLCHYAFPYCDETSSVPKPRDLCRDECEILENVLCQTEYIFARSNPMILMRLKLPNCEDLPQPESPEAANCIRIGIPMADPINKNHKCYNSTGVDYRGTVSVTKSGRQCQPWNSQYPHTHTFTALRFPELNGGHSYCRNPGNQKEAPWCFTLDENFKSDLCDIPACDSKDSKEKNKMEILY
Procedure: A 96-well black microplate (greiner bio one) was mounted on a biosensor tray case, and 200 10×KB or DW was added to each of 8 wells. Then Anti Penta His biosensors or 8 AR2G biosensors (ForteBio, USA) were inserted to hydrate for 10 minutes. 600 of the assay samples were diluted 2-fold or 3-fold to the appropriate assay concentrations, using 1×KB or 10×KB to 30 to 0.021 nM. To immobilize the antigen, recombinant human ROR1-His (Sino Biological, 13968-H08H) was diluted to 1 /ML with 10×KB or Sodium Acetate pH5 buffer. Immobilization was fixed at a threshold of 0.3 nm in the loading step. The association assay was carried out for 3 to 10 minutes, and the dissociation assay was carried out for 20 minutes. According to the Octet program template, the buffer was placed in a new 96-well black microplate according to order. As Baseline1, 200 10×KB or DW was placed. Then 200 each of 1 /mL of the antigen to be loaded, the ROR1-HIS protein, was added. As Baseline2, 200 10×KB or 1×KB was placed. Then to each well 30 to 0.021 nM of the diluted antibody and 200 each of 10×KB buffer or 1×KB corresponding to a reference blank was added. The temperature of the test plate was fixed at 30° C. After all of the samples were introduced, the equipment was started, and after the assay was completed, results were uploaded to the Octet Analysis 90 software, with KD values analyzed through 1:1 fitting. By obtaining KD values through the Octet assay method, it was confirmed that the anti-ROR1 antibody had strong binding potential to ROR1 antigen.

| Binder | Kd | koff | kon |
| --- | --- | --- | --- |
| B1 | 0.0639 nM | 0.000116 s⁻¹ | 1.81e+06 M⁻¹ s⁻¹ |
| B2 | 0.152 nM | 0.000338 s⁻¹ | 2.23e+06 M⁻¹ s⁻¹ |
| B3 | 0.0937 nM | 0.000231 s⁻¹ | 2.47e+06 M⁻¹ s⁻¹ |
| B4 | 0.0773 nM | 0.000119 s⁻¹ | 1.53e+06 M⁻¹ s⁻¹ |
| B5 | 0.803 nM | 0.000361 s⁻¹ | 450000 M⁻¹ s⁻¹ |
| B6 | 0.754 nM | 0.000551 s⁻¹ | 731000 M⁻¹ s⁻¹ |
| B7 | 0.024 nM | 3.31e-05 s⁻¹ | 1.38e+06 M⁻¹ s⁻¹ |

biological target: T5, recombinant human ROR1-His (Sino …); assay: ELISA, wells coated with human ROR1 protein (sheet: 'human ROR1'; text: ROR1-Fc or ROR1-His), IgG titrated, OD(450nm-650nm); x axis 'conc(nM)' numbered -5 to 2 (log10)
Procedure: as §1, §2

| Binder | EC50 (read off the curve) |
| --- | --- |
| B3 | ~0.05 nM |
| B4 | ~0.04 nM |
| B8 | ~0.04 nM |
| B9 | ~0.06 nM |

biological target: T5, recombinant human ROR1-His (Sino …); assay: ELISA, wells coated with human ROR1 protein (sheet: 'human ROR1'; text: ROR1-Fc or ROR1-His), IgG titrated, HRP anti-Fab detection, OD (450-650nm)
Procedure: as §1, §2

| Binder | EC50 (read off the curve) |
| --- | --- |
| B1 | ~0.2 nM |
| B2 | ~0.1 nM |
| B3 | ~0.2 nM |
| B4 | ~0.2 nM |
| B5 | ~0.2 nM |
| B6 | ~0.3 nM |
| B7 | ~0.6 nM |
